Results: patent publication US20170198050A1 (INHIBRX, published 2017)
Positions count from the first letter of the chain named. Values belong to the binder of their own block, whether it stands above or below them.

Tests used:
[1] = biological target: T1, recombinant human 41BB-mFc fusion protein (human, UniProt Q07011 24-186); experiment: ELISA, recombinant 41BB-mFc immobilized on Medisorp plate
T1 construct: A fusion protein containing 41BB operably linked to a mouse Fc region
Method: Binding was assessed by ELISA wherein recombinant 41BB-mFc protein was immobilized on a Medisorp 96 well plate.
(§1) The 41BB-targeting single domain antibodies (sdAbs) referred to herein as 1G3 (SEQ ID NO: 432), 1H4 (SEQ ID NO: 436), 1H1 (SEQ ID NO: 440), 4H4 (SEQ ID NO: 16), 1H8 (SEQ ID NO: 444), 4F5 (SEQ ID NO: 23), and 4E1 (SEQ ID NO: 20) bind recombinant human 41BB (FIG. 2A), cynomolgus 41BB (FIG. 2B). The 41BB-targeting single domain antibodies (sdAbs) referred to herein as 4F5 (SEQ ID NO: 23), 4H04 (SEQ ID NO: 16), 4E01 (SEQ ID NO: 20), RH03 (SEQ ID NO: 25), and D1 (SEQ ID NO: 29) bind human 41BB expressed on the cell surface of CHO cells (FIG. 3). The 41BB-targeting sdAbs referred to herein as 4H04, RH03, and […]. For FIG. 2A, FIG. 2B, and FIG. 4, binding was assessed by ELISA wherein recombinant 41BB-mFc fusion protein (a fusion protein containing 41BB operably linked to a mouse Fc region) was immobilized on a Medisorp 96 well plate. For FIG. 3, binding was assessed by flow cytometry using 41BB expressing CHO cells, and the data is presented as median fluorescence intensity.

[2] = biological target: T2, human 41BB expressed on the cell surface (human, UniProt Q07011 24-255); experiment: flow cytometry on 41BB expressing CHO cells
T2 construct: whole, on cells; also called human 41BB on CHO cells; human 41BB on 293freestyle cells
Text: as §1

[3] = biological target: T2, human 41BB expressed on the cell surface; experiment: flow cytometry on 41BB expressing 293freestyle cells
Method: The PDL1-41BB targeting fusion proteins of the disclosure include a humanized anti-41BB sequence. In the studies presented herein, the PDL1-41BB targeting fusion proteins of the disclosure include a humanized anti-41BB sequence such as hzRH3v5-1 (SEQ ID NO: 30) and/or hzRH3v9 (SEQ ID NO: 82) bind both human and cynomolgus 41BB (FIGS. 9A, 9B), including human 41BB and cynomolgus 41BB expressed on the surface of CHO cells (FIGS. 9C, 9D). Binding was assessed by flow cytometry on 41BB expressing 293freestyle cells.

T2 sequence (Q07011 24-255): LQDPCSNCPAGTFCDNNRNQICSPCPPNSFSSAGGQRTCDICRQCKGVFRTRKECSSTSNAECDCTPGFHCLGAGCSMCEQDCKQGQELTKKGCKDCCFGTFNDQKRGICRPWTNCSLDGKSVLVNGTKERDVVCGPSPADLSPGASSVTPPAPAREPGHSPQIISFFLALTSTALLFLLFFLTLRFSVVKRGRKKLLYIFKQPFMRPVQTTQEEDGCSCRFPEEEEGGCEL

- binding result [2]: binds
- binding result [1]: binds
B6: 4F5 (VHH)
VHH: QVQLVQSGGGLVQPGGSLRLSCAASGWAFDNYGMAWFRQAPGKEREFIGRLAWNGGSTDYADSVKGRFTISRDNPKNTLYLQMNSLKPEDTAVYYCARQRSYSRYGIRAPQTYDYWGQGTQVT
notes: also called 4F05

- binding result [1]: binds
B7: 1H4 (VHH)
VHH: QVQLVQSGGGLVQPGGSLRLSCVVSGFTFRSYAMSWVRQAPGKGLEWVSTINSGESSTKYADSVKGRFTISRDDAKNTLYLQMSDLKPEDTAVYFCAKHRGWSTVDDINYWGKGTQV
notes: also called 41BB-targeting single domain antibody 1H4

- binding result [3]: binds
B9: hzRH3v9 (VHH)
VHH: EVQLLESGGGEVQPGGSLRLSCAASGFSFSINAMGWYRQAPGKGREFVAAIESGRNTVYAESVKGRFTISRDNAKNTVYLQMSSLRAEDTAVYYCGLLKGNRVVSPSVAYWGQGTLVTVKP

- binding result [2]: binds
B10: RH3 (VHH)
VHH: QVQLQESGGGLVQPGGSLRLSCAVSGFSFSINAMGWYRQAPGKRREFLAAIDSGRNTVYAVSVKGRFTISRDNAKNTVYLQMNSLKPEDTAIYYCGLLKGNRVVSPSVAYWGQGTQVT
notes: also called RH03

- binding result [2]: binds
B11: D1 (VHH)
VHH: EVQPVQSGGGLVQAGESLRLSCAASATIFSNNAMGWYRQAPGKQRELVATITTGGFTNYRDSVKGRFDISRDNAKNTVYLQMNNLKPEDTAVYYCNVVLRYSRDYSYTTVKEYWGQGTQV
notes: also called 41BB-targeting single domain antibody D1

Second part, the binder before the results:

B1: 1G3 (VHH)
VHH: QVQLVQSGGGLVQPGGSLRLSCAASGFTFSSYAMSWVRQAPGKGLEWVSAIPAGDGSTKYADSVKGRFTISRDNAKNTVYLQMDSLKPEDTAVYFCAKSRGWSTVDDMDYWGKGTQV
notes: also called 41BB-targeting single domain antibody 1G3
- binding result [1]: binds

B2: 1H8 (VHH)
VHH: EVQLVQSGGGLVQPGGSLRLSCAASGFTFSSYYMSWVRQAPGKGLEWVSTISTNTGGGSTYYAYADSVKGRFTISRDNAKNTLYLEMNSLKPEDTAQYYCVRTRWEGVYDYWGLGTQV
notes: also called 41BB-targeting single domain antibody 1H8
- binding result [1]: binds

B3: 1H1 (VHH)
VHH: QVQLVQSGGGLVQPGGSLRLSCAASGFTFDDHAMSWVRQAPGKGLEWVSAISWNGHYTYYAESMKGRFAISRDNAKNTLYLQMNSLKSEDTAVYYCVKGWRGSYTRDRPFASWGQGTQV
notes: also called 41BB-targeting single domain antibody 1H1
- binding result [1]: binds

B4: 4H04 (VHH)
VHH: B6 VHH with V5Q, Q6E, P14A, G16D, S85N, R104G, A109T
notes: also called 4H4
- binding result [2]: binds
- binding result [1]: binds

B5: 4E01 (VHH)
VHH: B6 VHH with V5Q, P14A, G16D, D30G, Q39R, A61V, S85N, E89D, G106D, A109T
notes: also called 4E1
- binding result [2]: binds
- binding result [1]: binds

B8: hzRH3v5-1 (VHH)
VHH: B9 VHH with G44R
- binding result [3]: binds
